From patent US6348572B1, “Ligands for phosphatase binding assay” (Merck Frosst Canada & Co., priority 1996, dated 2002)
Where a chain is given by its changes, count along the chain named. Square brackets hold non-standard residues; d marks the D form. Ends that are not written are not given here. Peptide text beside a SMILES is read from it. * marks the point of attachment. F2Pmp = N[C@@H](Cc1ccc(C(F)(F)P(=O)(O)O)cc1)C(=O)O; Bz = O=C(c1ccccc1)*

Experiments:
[1] = target: T1, GST-PTP1B Mutated enzyme (Ser215) (Homo sapiens, UniProt P18031, C215S); assay: GST-PTP1B SPA binding assay, mutated (Ser215) enzyme; competition with tritiated BzN-EJJ-CONH2
T1 construct: made in house; host or cells: bacteria (DH5α named for the transformation; E. coli stated for the wild-type fusion)
T1 sequence (P18031 1-320 C215S): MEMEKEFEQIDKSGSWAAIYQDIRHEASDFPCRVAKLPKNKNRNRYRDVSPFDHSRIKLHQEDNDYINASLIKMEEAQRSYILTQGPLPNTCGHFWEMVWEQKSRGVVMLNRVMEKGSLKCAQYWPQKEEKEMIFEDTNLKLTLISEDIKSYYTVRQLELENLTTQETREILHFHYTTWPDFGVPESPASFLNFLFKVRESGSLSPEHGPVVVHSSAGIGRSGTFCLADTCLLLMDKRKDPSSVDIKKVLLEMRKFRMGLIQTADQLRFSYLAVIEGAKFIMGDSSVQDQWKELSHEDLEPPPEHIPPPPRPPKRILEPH
Description: (§1) Enzyme: Human recombinant PTPLB, containing ammo acids 1-320, (Seq. ID No. 1) fused to GST enzyme (glutathione S-transferase) purified by affinity chromatography. Wild type (Seq. ID No. 1) contains active site cysteine(215), whereas mutant (Seq. ID No. 7) contains active site serine(215).
(§2) Tritiated peptide: Bz-NEJJ-CONH2, Mwt. 808, empirical formula, C32H32T2O12P2F4
(§3) To each well is added the following solutions @ 25° C. in the following chronological order:
(§4) 1. 110 μl of assay buffer.
(§5) 2. 10 μl. of 50 nM tritiated BzN-EJJ-CONH2 in assay buffer (1X) @ 25° C.
(§6) 3. 10 μl. of testing compound in DMSO at 10 different concentrations in serial dilution (final DMSO, about 5% v/v) in duplicate @ 25° C.
(§7) 4. 10 μl. of 3.75 μg/ml purified human recombinant GST-PTP1B in enzyme dilution buffer.
(§8) 5. The plate is shaken for 2 minutes.
(§9) 6. 10 μl. of 0.3 μg/ml anti-glutathione S-transferase (anti-GST) rabbit IgG (Molecular Probes) diluted in antibody dilution buffer @ 25° C.
(§10) 7. The plate is shaken for 2 minutes.
(§11) 8. 50 μl. of protein A-PVT SPA beads (Amersham) @ 25° C.
(§12) 9. The plate is shaken for 5 minutes. The binding signal is quantified on a Microbeta 96-well plate counter.
(§13) 10. The non-specific signal is defined as the enzyme-ligand binding in the absence of anti-GST antibody.
11. […]
12. Percentage of inhibition is calculated accordingly. […]

[2] = target: T2, GST-PTP1B Non-Mutated (Cys215) (Homo sapiens, UniProt P18031); assay: GST-PTP1B SPA binding assay, non-mutated (Cys215) enzyme; competition with tritiated BzN-EJJ-CONH2; details: for IC50: non-mutated (Cys215) GST-PTP1B
T2 construct: made in house; host or cells: E. coli
T2 sequence (P18031 1-320): T1 sequence (P18031 1-320 C215S) with S215C
Description: as §1, §2, §3, §4, §5, §6, §7, §8, §9, §10, §11, §12, §13
11. 100% binding activity is defined as the enzyme-ligand binding in the presence of anti-GST antibody, but in the absence of the testing ligands with the non-specific binding subtracted.
12. Percentage of inhibition is calculated accordingly.
13. IC50 value is approximated from the non-linear regression fit with the 4-parameter/multiple sites equation (described in: “Robust Statistics”, New York, Wiley, by P. J. Huber (1981) and reported in nM units.

[3] = target: Human recombinant PTP1B, containing amino acids 1-320, fused to GST enzyme (glutathione S-transferase), wild type (active site cysteine 215) (human) (UniProt P18031); assay: GST-PTP1B SPA binding assay, competition with tritiated BzN-EJJ-CONH2, non-mutated (Cys215) enzyme
[4] = target: Human recombinant PTP1B, containing amino acids 1-320, Cys215Ser mutant, fused to GST enzyme (glutathione S-transferase) (human) (UniProt P18031); assay: GST-PTP1B SPA binding assay, competition with tritiated BzN-EJJ-CONH2, mutated (Ser215) enzyme
[5] = target: Human recombinant PTP1B, containing amino acids 1-320, Cys215Ser mutant, fused to GST enzyme (glutathione S-transferase) (human) (UniProt P18031); assay: SPA raw counts of bound tritiated BzN-EJJ-CONH2 on mutant GST-PTP1B with cold tripeptide, second duplicate; number split over r12 and r13
[6] = target: Human recombinant PTP1B, containing amino acids 1-320, Cys215Ser mutant, fused to GST enzyme (glutathione S-transferase) (human) (UniProt P18031); assay: SPA raw counts of bound tritiated BzN-EJJ-CONH2 on mutant GST-PTP1B with cold tripeptide, first duplicate; number split over r10 and r11
[7] = target: Human recombinant PTP1B, containing amino acids 1-320, Cys215Ser mutant, fused to GST enzyme (glutathione S-transferase) (human) (UniProt P18031); assay: SPA raw counts, mutant GST-PTP1B with tritiated BzN-EJJ-CONH2, anti-GST antibody present, no cold tripeptide, first duplicate
[8] = target: Human recombinant PTP1B, containing amino acids 1-320, Cys215Ser mutant, fused to GST enzyme (glutathione S-transferase) (human) (UniProt P18031); assay: SPA raw counts, mutant GST-PTP1B with tritiated BzN-EJJ-CONH2, no anti-GST antibody, no cold tripeptide, second duplicate
[9] = target: Human recombinant PTP1B, containing amino acids 1-320, Cys215Ser mutant, fused to GST enzyme (glutathione S-transferase) (human) (UniProt P18031); assay: SPA raw counts, mutant GST-PTP1B with tritiated BzN-EJJ-CONH2, anti-GST antibody present, no cold tripeptide, second duplicate
[10] = target: Human recombinant PTP1B, containing amino acids 1-320, Cys215Ser mutant, fused to GST enzyme (glutathione S-transferase) (human) (UniProt P18031); assay: SPA raw counts, mutant GST-PTP1B with tritiated BzN-EJJ-CONH2, no anti-GST antibody, no cold tripeptide, first duplicate
PTP1B = target: T3, PTP1B (Homo sapiens, UniProt P18031); assay: inhibition of PTP1B (stated in text, method not given); type: biochemical; details: read-out: active inhibitor of PTP1B (potency, type not given)
T3 sequence (P18031 1-435): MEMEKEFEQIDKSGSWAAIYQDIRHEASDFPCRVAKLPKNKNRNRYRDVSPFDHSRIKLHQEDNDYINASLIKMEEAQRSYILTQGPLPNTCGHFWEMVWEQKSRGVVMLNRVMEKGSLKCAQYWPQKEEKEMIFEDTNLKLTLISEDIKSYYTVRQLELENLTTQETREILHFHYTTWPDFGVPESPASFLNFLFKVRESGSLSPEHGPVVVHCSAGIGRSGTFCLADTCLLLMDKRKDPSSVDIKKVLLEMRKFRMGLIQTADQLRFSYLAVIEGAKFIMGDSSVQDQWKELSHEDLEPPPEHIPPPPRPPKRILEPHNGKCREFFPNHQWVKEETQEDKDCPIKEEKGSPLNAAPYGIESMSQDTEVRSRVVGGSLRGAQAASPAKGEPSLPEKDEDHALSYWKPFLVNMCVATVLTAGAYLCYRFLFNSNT

[11] = target: T4, Human recombinant PTP1B, containing amino acids 1-320, fused to GST enzyme (glutathione S-transferase), wild … (human, UniProt P18031 1-320); assay: GST-PTP1B SPA binding assay, competition with tritiated BzN-EJJ-CONH2, non-mutated (Cys215) enzyme
T4 construct: ID No. 1, which is the DNA strand; GST is N-terminal (pGEX-2T); also called GST-PTP1B; GST-PTP-1B fusion protein; not shown: N-terminal glutathione S-transferase carrier and the pGEX-2T linker residues
T4 sequence: T1 sequence (P18031 1-320 C215S) with S215C
Description: 1. 110 μl of assay buffer. 2. 10 μl. of 50 nM tritiated BzN-EJJ-CONH_2 in assay buffer (1X) @ 25° C. 3. 10 μl. of testing compound in DMSO at 10 different concentrations in serial dilution (final DMSO, about 5% v/v) in duplicate @ 25° C. 4. 10 μl. of 3.75 μg/ml purified human recombinant GST-PTP1B in enzyme dilution buffer. 5. The plate is shaken for 2 minutes. 6. 10 μl. of 0.3 μg/ml anti-glutathione S-transferase (anti-GST) rabbit IgG (Molecular Probes) diluted in antibody dilution buffer @ 25° C. 7. The plate is shaken for 2 minutes. 8. 50 μl. of protein A-PVT SPA beads (Amersham) @ 25° C. 9. The plate is shaken for 5 minutes. The binding signal is quantified on a Microbeta 96-well plate counter. 10. The non-specific signal is defined as the enzyme-ligand binding in the absence of anti-GST antibody. 11. 100% binding activity is defined as the enzyme-ligand binding in the presence of anti-GST antibody, but in the absence of the testing ligands with the non-specific binding subtracted. 12. Percentage of inhibition is calculated accordingly.

[12] = target: T5, Human recombinant PTP1B, containing amino acids 1-320, Cys215Ser mutant, fused to GST enzyme (glutathione … (human, UniProt P18031 1-320)); assay: GST-PTP1B SPA binding assay, competition with tritiated BzN-EJJ-CONH2, mutated (Ser215) enzyme
T5 construct: ID No. 7 (cDNA); the protein in the assay has Ser at 215; also called GST-PTP-1B Cys215Ser mutant; mutant GST-PTP1B; not shown: N-terminal glutathione S-transferase carrier and the pGEX-2T linker residues
T5 sequence: T1 sequence (P18031 1-320 C215S)

COc1cc(OC)c(OC)cc1CC/N=C\Cc1ncc[nH]1 [Imine, reference compound]
inhibition at 2 µM ([1]; at 2 μM, mutated (Ser215)): 10% | inhibition at 2 µM ([2]; at 2 μM, non-mutated (Cys215)): 67%

N-Benzoyl-L-glutamyl-[4-phosphono(difluoromethyl)]-L-phenylalanyl-[4-phosphono(difluoromethyl)]-L-phenylalanineamide (peptide)
IC50 [3]: 14 nM | IC50 [4]: 8 nM | Counts (dpm) at 62.5 nM tripeptide [5]: 1110 dpm | Counts (dpm) at 125 nM tripeptide [5]: 588 dpm | Counts (dpm) at 250 nM tripeptide [5]: 273 dpm | Counts (dpm) at 125 nM tripeptide [6]: 873 dpm | Counts (dpm) at 250 nM tripeptide [6]: 288 dpm

N-(3,5-Ditritio)benzoyl-L-glutamyl-[4-phosphono(difluoromethyl)]-L-phenylalanyl-[4-phosphono(difluoromethyl)]-L-phenylalanineamide (peptide)
Counts (dpm), antibody (+ control), no competitor [7]: 5650 dpm | Counts (dpm), no antibody (- control), non-specific signal [8]: 304 dpm | Counts (dpm), antibody (+ control), no competitor [9]: 6380 dpm | Counts (dpm), no antibody (- control), non-specific signal [10]: 252 dpm

NC(=O)[C@H](Cc1ccc(C(F)(F)P(=O)(O)O)cc1)NC(=O)[C@H](Cc1ccc(C(F)(F)P(=O)(O)O)cc1)NC(=O)[C@H](CCC(=O)O)NC(=O)c1ccccc1 [Example 1, N-Benzoyl-L-glutamyl-[4-phosphono(difluoromethyl)]-L-phenylalanyl-[4-phosphono(difluoromethyl)]-L-phenlalanine Amide] (Bz-Glu-[F2Pmp]-[F2Pmp]-NH2)
IC50 [2]: 14 nM | IC50 (PTP1B): 5 nM

Cc1cc(Cl)c2c(c1O)C(=O)C=CC2=O [Quinone, reference compound]
IC50 ([1]; mutated (Ser215) GST-PTP1B): > 100000 nM | IC50 [2]: 4000 nM

B1: DADE(F2PMP)L hexapeptide (T. Burke et al. Biochem. Biophys. Res. Comm. 204, 129, (1994)) (peptide)
peptide: DADE[F2Pmp]L
notes: Terminal caps, if any, stand only in a structure drawing that is not in the text; also called hexamer peptide containing the phosphotyrosyl mimetic F2Pmp
IC50 [11]: 400 nM | IC50 [12]: 100 nM
